Source: the nanobody polyreactivity screen of Harvey et al. (2022)

assay: yeast display, Sf9 membrane polyspecificity reagent, FACS + sequencing; frameworks hold sequencing errors
In short: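 Nanobodies came from a synthetic yeast display library in Saccharomyces cerevisiae BJ5465, induced with galactose for 36–48 hours and stained for 1 hour at 4 °C with 10% biotinylated, detergent-solubilized Sf9 membrane reagent. Cells were enriched on streptavidin microbeads and then FACS-sorted, with low and high (top ~1%) gates set on anti-HA fluorescence for expression and streptavidin fluorescence for reagent binding. Each polyreactivity label reflects the gate a clone came from. Genes were amplified by colony PCR, sequenced by MiSeq 2 × 250 and filtered by CDR length.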

| Sequence | polyreactivity (PSR sort gate) |
| --- | --- |
| QVQLVESGGGLVQAGGSLRLSCAASGFIFYAYAMGWYRQAPGKERELVAAITGSGGRTYYADSVKGRFTISRDNAKNTVYLQMNSLKPEDTAVYYCAAYYTSGGSRTYDYWGQGTQVTVSS | high polyreactivity |
| QVQLVESGGGLVQAGGSLRLSCAASGFIFYAYAMGWYRQAPGKERELVAAITSSGSRTYYADSVKGRFTISRDNAKNTVYLQMNSLKPEDTAVYYCNARSGGVRYSNIGTEKYDYWGQGTQVTVSS | low polyreactivity |
| QVQLVESGGGLVQAGGSLRLSCAASGFIFYAYAMGWYRQAPGKERELVAGISDSGASTYADSVKGRFTISRDNAKNTVYLQMNSLKPEDTAVYYCATTGYLSTKVYDEYGYWGQGTQVTVSS | low polyreactivity |
| QVQLVESGGGLVQAGGSLRLSCAASGFIFYDYAMGWYRQAPGKEREMVAGITDSGGSTSYADSVKGRFTISRDNAKNTVYLQMNSLKPEDTAVYYCAADNYVRAGINYDYWGQGTQVTVSS | low polyreactivity |
| QVQLVESGGGLVQAGGSLRLSCAASGFIFYDYDMGWYRPAPGKERELVAAITYSGGSTYYADSVKGRFTISRDNAKNTVYLQMNSLKPEDTAVYYCAAVKSRYAEAVDYYYWGQGTQVTVSS | low polyreactivity |
| QVQLVESGGGLVQAGGSLRLSCAASGFIFYDYDMGWYRQAPGKERELVAAITYSGGSTYYADSVKGRFTISRDNAKNSVYLQMNSLKPEDTAVYYCAAVKSRYAEAVDYYYWGQGTQVNVSS | low polyreactivity |
| QVQLVESGGGLVQAGGSLRLSCAASGFIFYEYDMGWYRQAPGKEGELVAAISVSGGSTYYADSVKGRFTISRDNAKNTVYLQMNSLKPEDTAVYYCAVFLPDYGRYDYWGQGTQVTVSS | low polyreactivity |
| QVQLVESGGGLVQAGGSLRLSCAASGFIFYFYAMGWYRQAPGKERELVAAISYNGGSTYYADSVKGRFTISRDNAKNTVYLQMNSLKPEDTAVYYCNAVRNYAWGKMYSWGQGTQVTVSS | high polyreactivity |
| QVQLVESGGGLVQAGGSLRLSCAASGFIFYKNAMGWYRQAPGKERELVAAINWSGGSTYYADSVKGRFTISRDNAKNTVYLQMNSLKPEDTAVYYCAVVVYSGYRHYYWGQGTQVTVSS | high polyreactivity |
| QVQLVESGGGLVQAGGSLRLSCAASGFIFYKYAMGWYRQAPGKERELVAAISRSGSTYYADSVKGRFTISRDNAKNTVYLQMNSLKPDDTAVYYCNALTYFKRSEYYWGQGTQVTVSS | high polyreactivity |
| QVQLVESGGGLVQAGGSLRLSCAASGFIFYKYAMGWYRQAPGKERELVARISISGGRTYYADSVKGRFPISRDNAKNTVYLQMNSLKPEDTAVYYCATSPWWYGYAAYGMDYWGQGTQVTVSS | low polyreactivity |
| QVQLVESGGGLVQAGGSLRLSCAASGFIFYLNAMGWYRQAPGKERELVAAISRGGTTYYADSVKGRFTISRDNAKNTVYLQMNSLIPEDTAVYYCAAKDKRWYSRYYWTGYDYWGQGTQVTVSS | high polyreactivity |
| QVQLVESGGGLVQAGGSLRLSCAASGFIFYPYAMGWYRQAAGKERELVASIRRSTASTYYADSVKGRFTISRDNAKNTVYLQMNSLKPEDTAVYYCAARYRSYPKEYDYWGQGTEVTVSS | high polyreactivity |
| QVQLVESGGGLVQAGGSLRLSCAASGFIFYPYAMGWYRQAPGKERELVAAITGSGGSTYYADSVKGRFTISRDNAKNTVYLQMNSLKPEDTAVYYCAAYYGPRKMDYWGQGTQVTVSS | high polyreactivity |
| QVQLVESGGGLVQAGGSLRLSCAASGFIFYPYAMGWYRQAPGKERELVAVITSGGRTYYADSVKGRFTISRDNAKNTVYLQMNSLKPEDTAVYYCAARYGRIQWKANWPEYGYWGQGTQVTVSS | low polyreactivity |
| QVQLVESGGGLVQAGGSLRLSCAASGFIFYPYVMGWYRQAPGKERELVATIRTDGRTSYADSVKGRFTISRDNAKNTVYLQMNSLKPEDTAVYYCNTKYVRYYRRYDSWGQGTQVTVSS | high polyreactivity |
| QVQLVESGGGLVQAGGSLRLSCAASGFIFYQYAMGWYRQAPGKERELVAAISRRGGGTYYADSVKGRFTISRDNAKNTVYLQMNSLKPEDTAVYYCNTDRLARITFGGYDYWGQGTQVTVSS | high polyreactivity |
| QVQLVESGGGLVQAGGSLRLSCAASGFIFYRNAMGWYRQAPGKERELVAAISGSGGRTYYADSVNGRFTISRDNAKNTVYLQMNSLNPEDTAVYYCNAGLLYRGEYDYWGQGTQVTVSS | high polyreactivity |
| QVQLVESGGGLVQAGGSLRLSCAASGFIFYRNTMGWYRQAPGKERELDAAISWSGARTYYADSVKGRFTISRDNAKNTVYLQMNSLKPEDTAVYYCNTVFYLHSTTTNGDYWGQGTQVTVSS | high polyreactivity |
| QVQLVESGGGLVQAGGSLRLSCAASGFIFYRWYALGWYIQAPGKERELVAAIRSGGSTYYADSVKGRFTISRDNAKNTVYLQMNSLKPEDTAVYYCSTSGPQYYSRHFDYWGEGTQVTVSS | low polyreactivity |
| QVQLVESGGGLVQAGGSLRLSCAASGFIFYRYAMGWYRPAPGKERELVAAISRSGGTTYYADSVKGRFTISRDNAKNTVYLQMNSLKPEDTAVYYCNVKRGTIGGYYYWGQGTQVTVSS | high polyreactivity |
| QVQLVESGGGLVQAGGSLRLSCAASGFIFYRYAMGWYRQAPGKERELVAAISKSGSSTYYADSVKGRFTISRDNAKNTVYLQMNSLKPEDTAVYYCARDRQSRSLLEYDYWGQGTQVTVSS | low polyreactivity |
| QVQLVESGGGLVQAGGSLRLSCAASGFIFYRYAMGWYRQAPGKERELVAAISWGGGSTTYYADSVKGRFTISRDNAKNTVYLQMNRLKPEDTAVYYCAAYIGKGYGSEYYYWGQGTQVTVSS | low polyreactivity |
| QVQLVESGGGLVQAGGSLRLSCAASGFIFYRYAMGWYRQAPGKERELVAVISGSGGRTYYADSVKGRFTISRDNAKNTVYLQMNSLKPEDTAVYYCAAVTRRRYYGHIYGYWGQGTQVTVSS | high polyreactivity |
| QVQLVESGGGLVQAGGSLRLSCAASGFIFYRYPMGWYRQAPGKERELVAAISYSGGSTYYADSVKGRFTISRDNAKNTVYLQMNSLKQEDTAVYYCARRQVYKFRRYDYWGQGTQVTVSS | high polyreactivity |
| QVQLVESGGGLVQAGGSLRLSCAASGFIFYRYVMGWYRQAPGKERELVAAITWSGGSTYYADSVKGRFTISRDNAKNTVYLQMNSLKPEDTAGNYCAAEWWLPSFGMDYWGQGTQVTVSS | low polyreactivity |
| QVQLVESGGGLVQAGGSLRLSCAASGFIFYRYVMGWYRQAPGKERELVAAITWSGGSTYYADSVKGRFTISRDNAKNTVYLQMNSLKPEDTAVYYCAAEWWLPSFGMDYWGQGTQVTVSS | low polyreactivity |
| QVQLVESGGGLVQAGGSLRLSCAASGFIFYSKAMGWYRQAPGKERELVAAISWGGGRTYYADSVKGRFTISRDNAKNTVYLQMNSLKPEDTAVYYCAAPWRRIGYSTRGYTLYDYWGQGTQVTVSS | high polyreactivity |
| QVQLVESGGGLVQAGGSLRLSCAASGFIFYSNAMGWYRQAPGKERELVAAISRRGGSTYYADSVKGRFTISRDNAKNTVYLQMNSLKPEDTAVYYCAATFKSGMDYWGQGTQVTVSS | high polyreactivity |
| QVQLVESGGGLVQAGGSLRLSCAASGFIFYSNDMGWYRQAPGKERELVAAITSSGGSTYYADSVKGRFTISRDNAKNTVYLQMNSLKPEDTAVYYCNADCTTFGLYSWGQGTQVTVSS | low polyreactivity |
